According to publication PMC7494816:
Values belong to the substance of their own block, whether it stands above or below them.

Legend:
[1] = target: 2:1:1 Vps75–Rtt109–(H3-H4) complex formed from co-expressed Vps75–Rtt109 (Saccharomyces cerevisiae | Xenopus laevis) (UniProt P53853); assay: SEC-MALS; 20 μM co-expressed 2:1 Vps75–Rtt109 with 20 or 40 μM H3-H4 or H3DM-H4; Superdex 200 Increase 10/300 GL; 20 mM Tris–HCl pH 7.5, 300 mM NaCl, 0.5 mM TCEP
[2] = target: co-expressed and co-purified 2:1 Vps75–Rtt109 complex (Saccharomyces cerevisiae) (UniProt P53853); assay: as above
[3] = target: Vps75–Rtt109 complex reconstituted at 2:2 from individually purified proteins (Saccharomyces cerevisiae) (UniProt P53853); assay: AUC; sedimentation velocity; 0.5 or 1 equivalent of H3-H4 or H3DM-H4 titrated against Vps75–Rtt109 reconstituted at 2:2 or 2:1 (relative to 7.5 μM Vps75), with 2:2 mixes of Vps75 and histones for reference; 20 mM Tris pH 7.5, 150 mM NaCl, 0.5 mM TCEP, 20°C; details: scale: H3-H4 per Vps75 dimer
[4] = target: Vps75–Rtt109 complex reconstituted at 2:1 from individually purified proteins (Saccharomyces cerevisiae) (UniProt P53853); assay: as above
[5] = target: 2:1:1 Vps75–Rtt109–(H3-H4) complex, reconstituted from individually purified Vps75 and Rtt109 (Saccharomyces cerevisiae | Xenopus laevis) (UniProt P53853); assay: as above

stoichiometry N (copies of the 2:1:1 sub-complex (4:2:2)) [1]: 2
Substance: 2:1:1 Vps75–Rtt109–(H3-H4) complex formed from co-expressed Vps75–Rtt109 (from UniProt P53853 1-264; Q07794 1-436; P84233 1-136; P62799 1-103)

stoichiometry N (H3-H4 per 2:1 Vps75–Rtt109 (2:1:1)) [2]: 1 | stoichiometry N [3]: 1
Substance: Xenopus laevis histones H3-H4 (wild type), refolded (from UniProt P84233 1-136; P62799 1-103) (complex)

stoichiometry N (H3DM-H4 per 2:1 Vps75–Rtt109 (2:1:1)) [2]: 1 | stoichiometry N (H3DM-H4 per Vps75 dimer (printed 2:2:1)) [4]: 1
Substance: Xenopus laevis H3DM-H4 (H3 dimerization mutant C110E, L126A, I130A with H4), refolded (from UniProt P62799 1-103) (complex)

stoichiometry N (copies of the 2:1:1 complex (4:2:2)) [5]: 2
Substance: 2:1:1 Vps75–Rtt109–(H3-H4) complex, reconstituted from individually purified Vps75 and Rtt109 (from UniProt P53853 1-264; Q07794 1-436; P84233 1-136; P62799 1-103)
